Experimental data published in the supplement of paper PMC9112550, “Optimization of the antimicrobial peptide Bac7 by deep mutational scanning” (BMC Biology, 2022).

Test system: Escherichia coli TOP10
Assay: shrunken log2 fold change of peptide-encoding DNA abundance (4.5 h post-induction vs induction); higher = less antimicrobial activity (less host growth inhibition)
Conditions: time post-induction: 4.5 h; library: site-saturation at positions 5, 18, 19, 20
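Further: peptides expressed intracellularly from a pBAD plasmid library in pooled LB shake-flask culture, induced with 0.3% L-arabinose, DNA abundance read by NGS, three biological replicates, DESeq2 with apeglm shrinkage.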

Sequence	shrunken log2 fold change
RRIRYRPPRLPRPRPRPFYVPRP	-0.602
RRIRIRPPRLPRPRPRPLRNPRP	-0.0491
RRIRHRPPRLPRPRPRPRFRPRP	-0.105
RRIRTRPPRLPRPRPRPEIWPRP	0.264
RRIRSRPPRLPRPRPRPCWAPRP	0.143
RRIRPRPPRLPRPRPRPHHKPRP	-0.647
RRIRPRPPRLPRPRPRPWSNPRP	-0.52
RRIRSRPPRLPRPRPRPTRWPRP	0.721
RRIRRRPPRLPRPRPRPPCWPRP	0.325
RRIRSRPPRLPRPRPRPGLSPRP	0.245
RRIRNRPPRLPRPRPRPSFHPRP	-0.41
RRIRYRPPRLPRPRPRPLDQPRP	-0.169
RRIRQRPPRLPRPRPRPTCLPRP	-0.108
RRIRHRPPRLPRPRPRPVIGPRP	-0.0297
RRIRRRPPRLPRPRPRPSPGPRP	0.258
RRIRNRPPRLPRPRPRPFTAPRP	0.613
RRIRKRPPRLPRPRPRPIAKPRP	0.141
RRIRVRPPRLPRPRPRPYEVPRP	0.0284
RRIRCRPPRLPRPRPRPGHKPRP	-0.514
RRIRDRPPRLPRPRPRPEGKPRP	-0.0117
RRIRPRPPRLPRPRPRPYPSPRP	-0.65
RRIRVRPPRLPRPRPRPWYNPRP	-0.153
RRIRHRPPRLPRPRPRPRSKPRP	3.34
RRIRNRPPRLPRPRPRPGCKPRP	-0.00214
RRIRFRPPRLPRPRPRPRFMPRP	-0.117

Sequence	shrunken log2 fold change
RRIRIRPPRLPRPRPRPRGKPRP	0.086
RRIRSRPPRLPRPRPRPYNTPRP	-1.1
RRIRGRPPRLPRPRPRPNTLPRP	-0.145
RRIRARPPRLPRPRPRPWRRPRP	0.267
RRIRFRPPRLPRPRPRPTRCPRP	0.299
RRIRVRPPRLPRPRPRPTLWPRP	0.259
RRIRPRPPRLPRPRPRPRVDPRP	0.263
RRIRLRPPRLPRPRPRPRVTPRP	-0.243
RRIRLRPPRLPRPRPRPRYGPRP	-0.0186
RRIRRRPPRLPRPRPRPIAKPRP	0.252
RRIRVRPPRLPRPRPRPDNLPRP	0.0725
RRIRLRPPRLPRPRPRPYFLPRP	-0.798
RRIRHRPPRLPRPRPRPIRKPRP	-0.583
RRIRERPPRLPRPRPRPCEAPRP	-0.041
RRIRCRPPRLPRPRPRPVKAPRP	0.0593
RRIRWRPPRLPRPRPRPVIWPRP	0.147
RRIRHRPPRLPRPRPRPLYIPRP	-0.777
RRIRCRPPRLPRPRPRPKDCPRP	-0.0763
RRIRNRPPRLPRPRPRPTFHPRP	-0.422
RRIRKRPPRLPRPRPRPADDPRP	0.799
RRIRFRPPRLPRPRPRPNLVPRP	-0.453
RRIRCRPPRLPRPRPRPRNGPRP	0.124
RRIRIRPPRLPRPRPRPDVAPRP	-0.206
RRIRFRPPRLPRPRPRPVQRPRP	-0.072
RRIRTRPPRLPRPRPRPQHEPRP	-0.00128

Sequence	shrunken log2 fold change
RRIRLRPPRLPRPRPRPHVFPRP	-0.0592
RRIRMRPPRLPRPRPRPKHAPRP	3.03
RRIRRRPPRLPRPRPRPAEMPRP	0.219
RRIRQRPPRLPRPRPRPYTVPRP	-0.104
RRIRQRPPRLPRPRPRPWPAPRP	0.0128
RRIRCRPPRLPRPRPRPDMEPRP	0.000584
RRIRCRPPRLPRPRPRPQMNPRP	-0.416
RRIRTRPPRLPRPRPRPPFWPRP	0.379
RRIRQRPPRLPRPRPRPNRRPRP	0.103
RRIRERPPRLPRPRPRPMHVPRP	0.05
RRIRCRPPRLPRPRPRPIFGPRP	-0.0692
RRIRSRPPRLPRPRPRPHAKPRP	-0.288
RRIRMRPPRLPRPRPRPVCEPRP	0.353
RRIRRRPPRLPRPRPRPYVIPRP	0.0475
RRIRNRPPRLPRPRPRPIALPRP	-0.0133
RRIRGRPPRLPRPRPRPCHDPRP	0.458
RRIRGRPPRLPRPRPRPWKTPRP	-0.0497
RRIRYRPPRLPRPRPRPWCTPRP	-1.06
RRIRMRPPRLPRPRPRPRSRPRP	0.997
RRIRHRPPRLPRPRPRPCVEPRP	0.197
RRIRPRPPRLPRPRPRPSRNPRP	0.0326
RRIRFRPPRLPRPRPRPLYIPRP	-0.63
RRIRDRPPRLPRPRPRPGPPPRP	0.733
RRIRTRPPRLPRPRPRPCPLPRP	-0.325
RRIRLRPPRLPRPRPRPDSHPRP	-0.46

Sequence	shrunken log2 fold change
RRIRVRPPRLPRPRPRPHHGPRP	-0.348
RRIRYRPPRLPRPRPRPCPNPRP	0.626
RRIRHRPPRLPRPRPRPNLEPRP	0.127
RRIRVRPPRLPRPRPRPEEEPRP	0.0136
RRIRSRPPRLPRPRPRPLDGPRP	-0.365
RRIRTRPPRLPRPRPRPFVHPRP	-0.138
RRIRWRPPRLPRPRPRPFLTPRP	2.56
RRIRFRPPRLPRPRPRPINDPRP	-0.241
RRIRWRPPRLPRPRPRPSIEPRP	0.0114
RRIRARPPRLPRPRPRPHNWPRP	0.129
RRIRLRPPRLPRPRPRPEMVPRP	0.201
RRIRIRPPRLPRPRPRPNLKPRP	-0.484
RRIRKRPPRLPRPRPRPPPRPRP	1.32
RRIRWRPPRLPRPRPRPPWHPRP	0.134
RRIRRRPPRLPRPRPRPPDDPRP	0.743
RRIRTRPPRLPRPRPRPMVMPRP	-0.0384
RRIRNRPPRLPRPRPRPNFEPRP	-0.0924
RRIRQRPPRLPRPRPRPHWRPRP	-0.374
RRIRGRPPRLPRPRPRPTANPRP	1.09
RRIRYRPPRLPRPRPRPSRNPRP	-0.12
RRIRMRPPRLPRPRPRPFDDPRP	0.243
RRIRMRPPRLPRPRPRPDFRPRP	0.146
RRIRHRPPRLPRPRPRPANYPRP	-0.00316
RRIRIRPPRLPRPRPRPMKPPRP	-0.00581
RRIRHRPPRLPRPRPRPKKQPRP	-0.0264

Sequence	shrunken log2 fold change
RRIRVRPPRLPRPRPRPIGDPRP	0.0238
RRIRSRPPRLPRPRPRPNQGPRP	0.153
RRIRQRPPRLPRPRPRPWELPRP	0.0585
RRIRWRPPRLPRPRPRPDHFPRP	-0.0288
RRIRYRPPRLPRPRPRPWDTPRP	-0.639
RRIRNRPPRLPRPRPRPPINPRP	-0.186
RRIRMRPPRLPRPRPRPREGPRP	0.79
RRIRHRPPRLPRPRPRPCPSPRP	0.0144
RRIRARPPRLPRPRPRPQWYPRP	-0.523
RRIRLRPPRLPRPRPRPDFRPRP	0.0254
RRIRKRPPRLPRPRPRPWYFPRP	0.0699
RRIRFRPPRLPRPRPRPRIIPRP	-0.514
RRIRLRPPRLPRPRPRPNCRPRP	0.00739
RRIRLRPPRLPRPRPRPWWTPRP	-0.312
RRIRFRPPRLPRPRPRPQFYPRP	-0.592
RRIRGRPPRLPRPRPRPKQCPRP	0.103
RRIRCRPPRLPRPRPRPYLPPRP	-1.2
RRIRFRPPRLPRPRPRPYNRPRP	-0.262
RRIRIRPPRLPRPRPRPVHWPRP	0.0203
RRIRLRPPRLPRPRPRPMHNPRP	-0.429
RRIRWRPPRLPRPRPRPHEPPRP	0.0371
RRIRIRPPRLPRPRPRPDKNPRP	-0.673
RRIRMRPPRLPRPRPRPCGGPRP	1.19
RRIRWRPPRLPRPRPRPRLPPRP	0.471
RRIRSRPPRLPRPRPRPMLQPRP	-0.0416

Sequence	shrunken log2 fold change
RRIRKRPPRLPRPRPRPCMDPRP	-0.122
RRIRGRPPRLPRPRPRPHIAPRP	2.17
RRIRRRPPRLPRPRPRPPYVPRP	0.181
RRIRHRPPRLPRPRPRPYFMPRP	-0.489
RRIRYRPPRLPRPRPRPICYPRP	-0.691
RRIRSRPPRLPRPRPRPPCQPRP	-0.0943
RRIRLRPPRLPRPRPRPYICPRP	-0.0262
RRIRDRPPRLPRPRPRPIWAPRP	-0.0982
RRIRERPPRLPRPRPRPSNTPRP	-0.942
RRIRTRPPRLPRPRPRPEWRPRP	0.338
RRIRMRPPRLPRPRPRPRPAPRP	1.51
RRIRGRPPRLPRPRPRPGNRPRP	0.333
RRIRVRPPRLPRPRPRPGAFPRP	0.0224
RRIRNRPPRLPRPRPRPEDLPRP	-0.00079
RRIRPRPPRLPRPRPRPMVRPRP	-0.0349
RRIRWRPPRLPRPRPRPMFKPRP	0.0191
RRIRPRPPRLPRPRPRPIWVPRP	0.0645
RRIRQRPPRLPRPRPRPYFSPRP	-0.451
RRIRHRPPRLPRPRPRPHFYPRP	-0.139
RRIRFRPPRLPRPRPRPGFAPRP	0.374
RRIRRRPPRLPRPRPRPIGPPRP	0.147
RRIRARPPRLPRPRPRPWRYPRP	-0.163
RRIRQRPPRLPRPRPRPRMIPRP	-0.227
RRIRIRPPRLPRPRPRPYRAPRP	-0.77
RRIRARPPRLPRPRPRPNAPPRP	0.467
